Reference: patent publication US20120270801A1 (Affibody, published 2012)

Biological target: T1, recombinant human HER3/Fc chimera (R&D Systems, #348-RB-050) (human, UniProt P21860 20-643)
T1 construct: Bought reagent; Biotinylated for flow cytometry, unlabelled for dot blot, ELISA and SPR; also called biotinylated HER3-Fc; not shown: human IgG Fc-region
Assay: SPR, 2.5 nM HER3-Fc alone injected over immobilised heregulin

B1: heregulin (HRG1-β1, EGF-like domain, R&D Systems) (ligand, human, UniProt Q02297-6 177-241, looked up)
chain: SHLVKCAEKEKTFCVNGGECFMVKDLSNPSRYLCKCPNEFTGDRCQNYVMASFYKHLGIEFMEAE
notes: domain: EGF-like domain; also called human heregulin; HRG1-β, 396-HB
- binding result: binds
